In patent US20190203248A1 (Bristol-Myers Squibb, published 2019):
Blank lines part the entries; values can stand above or below the binder they belong to.

What was measured:
rhesus serum albumin [1] = biological target: T1, rhesus serum albumin (rhesus, UniProt Q28522 17-600); assay: binding kinetics, HBS-P buffer, 37 C against 25 C
T1 construct: also called RhSA

human serum albumin [2] = biological target: T2, human serum albumin (human, UniProt P02768 25-609); assay: binding kinetics, HBS-P buffer, 37 C against 25 C
T2 construct: also called HSA; HuSA

human serum albumin [3] = biological target: T2, human serum albumin; assay: binding kinetics, HBS-P buffer, 25 C; 25 C, HBS-P buffer
rhesus serum albumin [4] = biological target: T1, rhesus serum albumin; assay: binding kinetics, HBS-P buffer, 25 C
human serum albumin [5] = biological target: T2, human serum albumin; assay: binding kinetics, HBS-P buffer, 25 C
rhesus serum albumin [6] = biological target: T1, rhesus serum albumin; assay: binding kinetics, MES buffer, pH 5.5
human serum albumin [7] = biological target: T2, human serum albumin; assay: binding kinetics, MES buffer, pH 5.5
rat serum albumin = rat serum albumin (rat, UniProt P02770 25-608); assay: direct binding ELISA on plate-coated albumin, absorbance 450 nm
Protocol: (§1) For dose response assays, concentrations ranging from 0.1 nM up to 1 μM were used. After washing in PBST to remove unbound Adnectins™, anti-His mAb-HRP conjugate (R&D Systems, MN) diluted 1:2500 in casein block buffer was added to the bound His-tagged Adnectins™ for 1 hour at room temperature. Excess conjugate was removed by washing with PBST and bound Adnectins™ detected using TMB detection reagents (BD Biosciences) according to the manufacturer's instructions.

human serum albumin [8] = biological target: T2, human serum albumin; assay: as above
Protocol: as §1

murine serum albumin [9] = biological target: T3, murine serum albumin (mouse, UniProt P07724 25-608); assay: as above
T3 construct: also called MuSA; mouse serum albumin
Protocol: as §1

rhesus serum albumin [10] = biological target: T1, rhesus serum albumin; assay: binding kinetics, HBS-P buffer, 37 C
human serum albumin [11] = biological target: T2, human serum albumin; assay: binding kinetics, HBS-P buffer, 37 C
rhesus serum albumin [12] = biological target: T1, rhesus serum albumin; assay: binding kinetics, MES buffer, pH 7.4
human serum albumin [13] = biological target: T2, human serum albumin; assay: binding kinetics, MES buffer, pH 7.4
murine serum albumin [14] = biological target: T3, murine serum albumin; assay: SPR (Biacore), albumin immobilized on CM5 chip
Protocol: In addition, binding to albumin was carried out under various pH conditions ranging from pH 5.5 to pH 7.4.

rhesus serum albumin [15] = biological target: T1, rhesus serum albumin; assay: comment in summary table
[16] = biological target: T4, cynomolgous monkey serum albumin (cynomolgous monkey, UniProt A2V9Z4 25-608); assay: SPR (Biacore T100), CySA immobilized, 37 C, 30 µl/min
T4 construct: also called CySA
Protocol: (§2) Serum albumins were dissolved in PBS buffer (10 mM sodium phosphate, 130 mM sodium chloride, pH 7.1) to a concentration of 10 mg/ml, and subsequently diluted to 8-10 μg/ml in 10 mM sodium acetate pH 5.0 for immobilization. Serum albumins were immobilized on a Series S CM5 sensor chip using standard ethyl(dimethylaminopropyl) carbodiimide (EDC)/N-hydroxysuccinimide (NHS) chemistry in HBS-EP+ running buffer at 25° C., following general manufacturer guidelines. Flow cell 1 was activated with EDC/NHS and blocked with ethanolamine. […] Kinetic experiments were performed in PBS buffer containing 0.05% tween-20 (running buffer) at either 25° C. or 37° C. […] These samples were injected across flow cells 1-4 for 300 s, with a 420 s dissociation time, at flow rates of 30 μl/min or 60 μl/min to check for mass transfer limitation. All surfaces were regenerated with 2 pulses of 10 mM glycine pH 2.0 at 30 μl/min for 30 s. Raw sensograms were “double-referenced” by subtracting flow cell 1 data from flow cell 2, 3 or 4 data, and then subtracting a separate buffer cycle from each sensogram. The double-referenced sensogram data was fitted to a 1:1 Langmuir model using Biacore T100 Evaluation software version 2.0.2 to determine the association rate constant (ka), the dissociation rate constant (kd), and the equilibrium dissociation constant (KD).

human β-klotho [17] = biological target: T5, human β-klotho (human, UniProt Q86Z14 1-1044); assay: cell-based or functional assay
human serum albumin [18] = biological target: T2, human serum albumin; assay: SPR (Biacore T100), HSA immobilized, 25 C, 30 µl/min
Protocol: as §2

murine serum albumin [19] = biological target: T3, murine serum albumin; assay: SPR (Biacore T100), immobilized MuSA, analyte series 1000 to 62.5 nM, 37 C
Protocol: as §2

[20] = biological target: T4, cynomolgous monkey serum albumin; assay: SPR (Biacore T100), CySA immobilized, 25 C, 30 µl/min
Protocol: as §2

human serum albumin [21] = biological target: T2, human serum albumin; assay: SPR (Biacore T100), HSA immobilized, 37 C, 30 µl/min
Protocol: as §2

[22] = biological target: T6, β-klotho of differentiated 3T3-L1 adipocytes (mouse, UniProt Q99N32 1-1043); assay: cell-based or functional assay
T6 sequence (looked up): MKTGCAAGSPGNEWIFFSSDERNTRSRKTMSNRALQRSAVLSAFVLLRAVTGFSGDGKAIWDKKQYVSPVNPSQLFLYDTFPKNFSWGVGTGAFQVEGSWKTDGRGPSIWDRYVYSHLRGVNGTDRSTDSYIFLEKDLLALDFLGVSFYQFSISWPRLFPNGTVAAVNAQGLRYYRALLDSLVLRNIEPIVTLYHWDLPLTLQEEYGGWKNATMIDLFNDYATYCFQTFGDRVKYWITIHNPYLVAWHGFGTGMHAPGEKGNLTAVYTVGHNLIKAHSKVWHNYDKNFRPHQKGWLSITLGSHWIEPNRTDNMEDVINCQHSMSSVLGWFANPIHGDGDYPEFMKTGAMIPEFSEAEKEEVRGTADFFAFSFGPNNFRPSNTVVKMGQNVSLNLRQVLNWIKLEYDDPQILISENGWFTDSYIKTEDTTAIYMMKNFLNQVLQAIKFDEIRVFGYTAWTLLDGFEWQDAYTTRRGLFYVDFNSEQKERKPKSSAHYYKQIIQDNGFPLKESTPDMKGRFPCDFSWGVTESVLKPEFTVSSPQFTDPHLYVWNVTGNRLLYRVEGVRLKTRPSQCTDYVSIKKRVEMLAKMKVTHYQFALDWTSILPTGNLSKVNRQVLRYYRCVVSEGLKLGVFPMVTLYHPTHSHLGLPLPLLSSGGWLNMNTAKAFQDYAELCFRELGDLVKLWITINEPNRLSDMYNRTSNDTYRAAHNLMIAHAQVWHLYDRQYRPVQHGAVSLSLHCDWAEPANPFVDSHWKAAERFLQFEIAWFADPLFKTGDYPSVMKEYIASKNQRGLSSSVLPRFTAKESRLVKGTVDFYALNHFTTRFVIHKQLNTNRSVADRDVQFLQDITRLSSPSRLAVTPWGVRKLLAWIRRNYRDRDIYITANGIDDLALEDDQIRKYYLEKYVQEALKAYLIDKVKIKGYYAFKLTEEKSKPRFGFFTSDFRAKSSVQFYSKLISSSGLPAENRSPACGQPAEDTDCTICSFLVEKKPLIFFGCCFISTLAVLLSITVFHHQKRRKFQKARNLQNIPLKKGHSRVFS

human β-klotho [23] = biological target: T5, human β-klotho; assay: cell-based or functional assay; remark: listed apart in the source
human serum albumin [24] = biological target: T2, human serum albumin; assay: isothermal titration calorimetry, 37 C, PBS
Protocol: SABA-FGF21 fusion protein plus buffer was placed in the instrument sample cell at a concentration range of 0.4 to 1.0 mg/mL protein. The matching buffer was placed in the reference cell. Concentrations were determined using extinction coefficients calculated from the protein sequences of the pure proteins. The instrument reaction cell was equilibrated at 37° C. […] The resultant thermogram data was fitted using Origin™ evaluation software package (Microcal Inc.) version 2.0.2 to estimate the stochiometry, enthalpy, and equilibrium disassociation constant (KD) of the protein—protein binding reaction.

T1 sequence (Q28522 17-600 limits assumed): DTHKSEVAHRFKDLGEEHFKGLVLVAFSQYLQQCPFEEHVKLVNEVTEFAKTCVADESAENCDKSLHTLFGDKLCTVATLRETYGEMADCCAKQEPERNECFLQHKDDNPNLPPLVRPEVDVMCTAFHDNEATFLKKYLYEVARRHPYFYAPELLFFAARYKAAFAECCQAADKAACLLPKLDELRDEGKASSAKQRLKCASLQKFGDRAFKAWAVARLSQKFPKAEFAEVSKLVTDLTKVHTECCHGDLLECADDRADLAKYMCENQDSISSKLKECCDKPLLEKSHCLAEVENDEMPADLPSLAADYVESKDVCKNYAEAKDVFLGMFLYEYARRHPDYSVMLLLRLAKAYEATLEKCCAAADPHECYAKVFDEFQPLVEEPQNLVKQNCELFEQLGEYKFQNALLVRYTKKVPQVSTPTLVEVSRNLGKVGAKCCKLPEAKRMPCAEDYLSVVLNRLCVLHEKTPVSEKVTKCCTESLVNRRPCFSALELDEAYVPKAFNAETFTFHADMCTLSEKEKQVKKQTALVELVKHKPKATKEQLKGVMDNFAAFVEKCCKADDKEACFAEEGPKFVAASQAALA
T4 sequence (A2V9Z4 25-608 limits assumed): as the sequence (Q28522 17-600 limits assumed) above
T3 sequence (P07724 25-608 limits assumed): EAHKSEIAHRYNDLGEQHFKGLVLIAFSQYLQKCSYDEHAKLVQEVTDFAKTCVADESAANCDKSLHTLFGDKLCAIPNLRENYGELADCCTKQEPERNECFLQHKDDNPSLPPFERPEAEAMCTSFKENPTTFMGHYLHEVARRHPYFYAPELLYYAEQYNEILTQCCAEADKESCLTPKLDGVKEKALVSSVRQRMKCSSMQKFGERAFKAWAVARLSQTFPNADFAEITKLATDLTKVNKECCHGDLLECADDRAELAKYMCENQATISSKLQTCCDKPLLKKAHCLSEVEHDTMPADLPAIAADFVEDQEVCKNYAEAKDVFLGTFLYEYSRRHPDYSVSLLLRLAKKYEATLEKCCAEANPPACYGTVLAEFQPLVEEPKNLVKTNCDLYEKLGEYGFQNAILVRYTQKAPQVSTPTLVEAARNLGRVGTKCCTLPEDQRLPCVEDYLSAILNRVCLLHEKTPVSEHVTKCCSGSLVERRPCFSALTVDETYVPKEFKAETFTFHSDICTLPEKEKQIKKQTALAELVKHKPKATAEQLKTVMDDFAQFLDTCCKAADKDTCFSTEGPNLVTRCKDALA
Sequence of rat serum albumin (P02770 25-608 limits assumed): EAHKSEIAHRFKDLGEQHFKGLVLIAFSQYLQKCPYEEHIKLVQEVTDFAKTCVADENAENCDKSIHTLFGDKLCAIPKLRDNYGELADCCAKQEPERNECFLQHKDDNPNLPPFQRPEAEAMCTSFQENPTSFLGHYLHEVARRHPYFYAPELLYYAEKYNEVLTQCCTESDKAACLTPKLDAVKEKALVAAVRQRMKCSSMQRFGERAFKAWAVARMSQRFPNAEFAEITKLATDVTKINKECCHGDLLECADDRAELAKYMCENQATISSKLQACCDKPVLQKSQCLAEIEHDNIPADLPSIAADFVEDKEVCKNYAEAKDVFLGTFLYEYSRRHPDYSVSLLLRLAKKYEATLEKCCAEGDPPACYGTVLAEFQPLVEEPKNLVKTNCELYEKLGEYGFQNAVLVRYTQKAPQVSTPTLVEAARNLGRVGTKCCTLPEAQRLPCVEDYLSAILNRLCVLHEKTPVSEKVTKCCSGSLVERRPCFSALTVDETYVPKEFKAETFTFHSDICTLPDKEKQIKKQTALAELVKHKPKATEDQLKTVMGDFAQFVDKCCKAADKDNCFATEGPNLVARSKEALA

ratio of affinity at 37 C against 25 C (rhesus serum albumin [1]): 0.5 fold | fold increase in affinity at 37 C against 25 C (human serum albumin [2]): ~2 fold | kon (human serum albumin [3]): 8210 M⁻¹ s⁻¹ | Kd (rhesus serum albumin [4]): 580 nM | koff (rhesus serum albumin [4]): 0.00378 s⁻¹ | kon (rhesus serum albumin [4]): 6600 M⁻¹ s⁻¹ | Kd (human serum albumin [5]): 55.3 nM | koff (human serum albumin [5]): 0.000443 s⁻¹ | Kd (rhesus serum albumin [6]): 359 nM | koff (rhesus serum albumin [6]): 0.00272 s⁻¹ | kon (rhesus serum albumin [6]): 7570 M⁻¹ s⁻¹ | Kd (human serum albumin [7]): 28.6 nM | koff (human serum albumin [7]): 0.00027 s⁻¹ | kon (human serum albumin [7]): 9440 M⁻¹ s⁻¹ | binding result (rat serum albumin): no binding (tested: 1000 nM) | EC50 (read off the curve) (human serum albumin [8]): ~7 nM | binding result (murine serum albumin [9]): no binding (tested: 1000 nM) | Kd (rhesus serum albumin [10]): 977 nM | koff (rhesus serum albumin [10]): 0.0185 s⁻¹ | kon (rhesus serum albumin [10]): 18900 M⁻¹ s⁻¹ | Kd (human serum albumin [11]): 24.1 nM | koff (human serum albumin [11]): 0.000815 s⁻¹ | kon (human serum albumin [11]): 33800 M⁻¹ s⁻¹ | Kd (rhesus serum albumin [12]): 479 nM | koff (rhesus serum albumin [12]): 0.00295 s⁻¹ | kon (rhesus serum albumin [12]): 6160 M⁻¹ s⁻¹ | Kd (human serum albumin [13]): 41.9 nM | koff (human serum albumin [13]): 0.000388 s⁻¹ | kon (human serum albumin [13]): 9260 M⁻¹ s⁻¹
B1: SABA1.2 (designed binder)
chain: MGVSDVPRDLEVVAATPTSLLISWHSYYEQNSYYRITYGETGGNSPVQEFTVPYSQTTATISGLKPGVDYTITVYAVYGSKYYYPISINYRTEIEDEDEDEDED
notes: also called core 1 10Fn3 comprising an (ED)5 extension

binding result (murine serum albumin [14]): no binding | binding result (rhesus serum albumin [15]): binds
B2: SABA5.1 (designed binder)
chain: MGVSDVPRDLEVVAATPTSLLISWEDDSYYSRYYRITYGETGGNSPVQEFTVPSDLYTATISGLKPGVDYTITVYAVTYDVTDLIMHEPISINYRTEIDKPSQHHHHHH
notes: His6-tagged Adnectin core 5; same BC, DE and FG loops as SABA4

Kd [16]: 2800 nM | koff [16]: 0.0123 s⁻¹ | kon [16]: 4440 M⁻¹ s⁻¹ | EC50 (nM), pERK 1/2 assay in HEK β-Klotho expressing stable cells (human β-klotho [17]): 102 nM | Kd (human serum albumin [18]): 98 nM | koff (human serum albumin [18]): 0.000333 s⁻¹ | kon (human serum albumin [18]): 3380 M⁻¹ s⁻¹ | binding result (murine serum albumin [19]): no binding (tested: 1000 nM) | Kd [20]: 1200 nM | koff [20]: 0.0047 s⁻¹ | kon [20]: 3930 M⁻¹ s⁻¹ | Kd (human serum albumin [21]): 190 nM | koff (human serum albumin [21]): 0.00111 s⁻¹ | kon (human serum albumin [21]): 5960 M⁻¹ s⁻¹ | EC50 (nM), pERK assay in 3T3-L1 adipocytes [22]: 11 nM | Fold Activation, pERK assay in 3T3-L1 adipocytes [22]: 1.8 fold | fold shift of potency (EC50) relative to His-tagged FGF21, pERK 1/2 assay (human β-klotho [23]): ~15 fold | Kd (human serum albumin [24]): 3.8 nM | ΔH (human serum albumin [24]): -15400 cal/mol
B3: SABA1-FGF21v1 (designed binder)
chain: MGVSDVPRDLEVVAATPTSLLISWHSYYEQNSYYRITYGETGGNSPVQEFTVPYSQTTATISGLKPGVDYTITVYAVYGSKYYYPISINYRTEIEKPSQGSGSGSGSGSGSGSPIPDSSPLLQFGGQVRQRYLYTDDAQQTEAHLEIREDGTVGGAADQSPESLLQLKALKPGVIQILGVKTSRFLCQRPDGALYGSLHFDPEACSFRELLLEDGYNVYQSEAHGLPLHLPGNKSPHRDPAPRGPARFLPLPGLPPALPEPPGILAPQPPDVGSSDPLSMVGPSQGRSPSYAS
notes: Fusion: SABA core 1 with AdNT1 leader and AdCT7 tail, (GS)7 linker, FGF21 core with FNT3 leader and C-terminal S; also called SABA-FGF21v1 fusion; SABA1-FGF21 variant 1
